Assay results taken from paper PMC12668046, “Single cis‐elements in brassinosteroid‐induced upregulated genes are insufficient to recruit both redox states of the BIL1/BZR1 DNA‐binding domain” (Febs Letters, 2025).

Tests used:
[1] = target: the molecule itself; experiment: SEC; unfused BIL1/BZR1 DBD pretreated with DTT; Superdex 75 10/300 GL Increase; reductant-free buffer 20 mM Tris/HCl pH 8.0, 1 M NaCl, 10% glycerol
[2] = target: the molecule itself; experiment: crystal structure; mMBP-Ala-BIL1/BZR1 DBD co-crystallised with DNA fragments containing E-box variants (CATATG or CAGCTG); sitting drop, 293 K, 50 mM sodium cacodylate pH 6.5, 0.2 M KCl, 0.01 M MgCl2, 10% PEG 4000

| Protein | binding result [1] | binding result [2] |
| --- | --- | --- |
| unfused BIL1/BZR1 DBD (21–104), pretreated with the reductant DTT (domain or fragment, A. thaliana, UniProt Q8S307 21-104, looked up, also called reduced BIL1/BZR1 DBD; source: expressed and purified as described previously [9, 14, 21]; SEC into reductant-free buffer) ARRKPSWRERENNRRRERRRRAVAAKIYTGLRAQGDYNLPKHCDNNEVLKALCVEAGWVVEEDGTTYRKGCKPLPGEIAGTSSR | binds |  |
| mutated maltose-binding protein (mMBP)-Ala-BIL1/BZR1 DBD (amino acids 21–104) (domain or fragment, A. thaliana, UniProt Q8S307 21-104, looked up, protomers 1 and 2 are chains C and D of the deposited entries; Co-crystallised with E-box DNA fragments; also called mMBP-fused BIL1/BZR1 DBD; mMBP-BIL1/BZR1 (21–104); source: expressed and purified as described previously [9, 14, 21]; SEC) ARRKPSWRERENNRRRERRRRAVAAKIYTGLRAQGDYNLPKHCDNNEVLKALCVEAGWVVEEDGTTYRKGCKPLPGEIAGTSSR |  | binds |
